Legend:
nfP2X7 CAR 1 [1] = molecular target: T1, nfP2X7 CAR 1; assay: flow cytometry, CAR T cells, anti-His-FITC, EGFR+ over EGFR- cells
T1 construct: Expressed on T cells with truncated EGFR as marker gene; also called anti-nfP2X7 receptor CAR 1; nfP2X7 targeted CAR on EGFR+ T cells
Experimental: (§1) nfP2X₇ CAR T cells were incubated with different BRiDGE variants at saturating concentrations. […] The MFI intensity correlates with the number of secondary bound antibodies bound to the BRiDGEs that are only detected if they are bound to the CAR T cells. EGFR was used as a marker gene to detect the CAR expression. Thus, the EGFR+ T cell population was defined as the CAR expressing cells and the EGFR− T cell population was defined as the CAR negative subset. MFI: median fluorescence intensity. EGFR: epidermal growth factor receptor. BLItz: Bio-Layer interferometry (BLI) technology using HIS-tag identification tips. HIS-tag MFI Ratio: relative index that is calculated by the testing condition MFI divided by the control MFI, which corresponds to the MFI measured on EGFR+ T cells (defined as CAR positive cells) divided by the MFI measured on the EGFR− T cells (defined as CAR negative cells). […] The higher the MFIR, the stronger the binding.

CD33 [2] = molecular target: T2, CD33 (UniProt P20138 18-364, limits assumed); assay: flow cytometry, MOLM-13 cells, anti-His-FITC detection
T2 construct: whole, on cells; also called Siglec-3; CD33 on MOLM-13 cells
T2 sequence (P20138 18-364 limits assumed): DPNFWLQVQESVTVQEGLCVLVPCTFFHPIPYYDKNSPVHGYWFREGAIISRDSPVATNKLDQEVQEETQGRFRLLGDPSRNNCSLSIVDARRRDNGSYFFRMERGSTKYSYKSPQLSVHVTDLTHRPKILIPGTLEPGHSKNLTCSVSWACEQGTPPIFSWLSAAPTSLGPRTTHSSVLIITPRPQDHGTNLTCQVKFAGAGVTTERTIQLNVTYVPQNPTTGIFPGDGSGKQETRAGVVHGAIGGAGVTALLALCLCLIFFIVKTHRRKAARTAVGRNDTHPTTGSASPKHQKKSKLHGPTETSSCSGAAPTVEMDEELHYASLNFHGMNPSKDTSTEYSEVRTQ
Experimental: (§2) MOLM-13 cells were incubated with different CD33 BRIDGE variants at saturating concentrations. […] The MFI intensity correlates with the number of secondary antibodies bound to the CD33 BRIDGE variants that are only detected if they are bound to the MOLM-13 cells. MFI: median fluorescence intensity. BLItz: Bio-Layer interferometry (BLI) technology using HIS-tag identification tips. […] The higher the MFIR, the stronger the binding.

nfP2X7 CAR 1 [3] = molecular target: T1, nfP2X7 CAR 1; assay: flow cytometry, CAR T cells, anti-His-FITC, EGFR+ MFI over background 0.4
Experimental: as §1

CD33 [4] = molecular target: T2, CD33; assay: flow cytometry, MOLM-13 cells, anti-His-FITC detection, ratio to no bridge
Experimental: as §2

nfP2X7 CAR 1 [5] = molecular target: T1, nfP2X7 CAR 1; assay: flow cytometry, nfP2X7 CAR T cells (EGFR+), anti-His-FITC detection
Experimental: as §1

Binder | HisTag MFI Ratio of EGFR+/EGFR- (nfP2X7 CAR 1 [1]) | MFI HisTag FITC (CD33 [2]) | HisTag MFI Ratio (background 0.4) (nfP2X7 CAR 1 [3]) | MFIR HisTag FITC (CD33 [4]) | MFI HisTag FITC in EGFR+ Population (nfP2X7 CAR 1 [5])
CD33 BRIDGE variant B14 (Fab, V domains shown, Lintuzumab-based Fab bridging molecule) VH: QVQLVQSGAEVKKPGSSVKVSCKASGYTFTDYNMHWVRQAPGQGLEWIGYIYPYNGGTGYNQKFKSKATITADESTNTAYMELSSLRSEDTAVYYCARGRPAMDYWGQGTLVTVSS VL: DIQMTQSPSSLSASVGDRVTITCRASESVDNYGISFMNWFQQKPGKAPKLLIYAASNQGSGVPSRFSGSGSGTDFTLTISSLQPDDFATYYCQQSKEVPWTFGQGTKVEIKR | 2.9 | 6.68 | 3.6 | 9.97 | 1.44
CD33 BRIDGE variant B13 (Fab, V domains shown, Lintuzumab-based Fab bridging molecule) VH: QVQLVQSGAEVKKPGSSVKVSCKASGYTFTDYNMHWVRQAPGQGLEWIGYIYPYNGGTGYNQKFKSKATITADESTNTAYMELSSLRSEDTAVYYCARGRPAMDYWGQGTLVTVSS VL: DIQMTQSPSSLSASVGDRVTITCRASESVDNYGISFMNWFQQKPGKAPKLLIYAASNQGSGVPSRFSGSGSGTDFTLTISSLQPDDFATYYCQQSKEVPWTFGQGTKVEIKR | 2.9 | 6.78 | 3.4 | 10.1 | 1.35
CD33 BRIDGE variant B6 (Fab, Lintuzumab-based Fab bridging molecule) light: GHNYTTRNILPGLNITSTFHKTSGSGKGGGSEPKSSDKTHTDIQMTQSPSSLSASVGDRVTITCRASESVDNYGISFMNWFQQKPGKAPKLLIYAASNQGSGVPSRFSGSGSGTDFTLTISSLQPDDFATYYCQQSKEVPWTFGQGTKVEIKRTVAAPSVFIFPPSDEQLKSGTASVVCLLNNFYPREAKVQWKVDNALQSGNSQESVTEQDSKDSTYSLSSTLTLSKADYEKHKVYACEVTHQGLSSPVTKSFNRGECHHHHHH heavy: QVQLVQSGAEVKKPGSSVKVSCKASGYTFTDYNMHWVRQAPGQGLEWIGYIYPYNGGTGYNQKFKSKATITADESTNTAYMELSSLRSEDTAVYYCARGRPAMDYWGQGTLVTVSSASTKGPSVFPLAPSSKSTSGGTAALGCLVKDYFPEPVTVSWNSGALTSGVHTFPAVLQSSGLYSLSSVVTVPSSSLGTQTYICNVNHKPSNTKVDKKVEPKSCHHHHHH | 3.4 | 6.25 | 4.9 | 9.33 | 1.96
CD33 BRIDGE variant B11 (Fab, Lintuzumab-based Fab bridging molecule) light: GHNYTTRNILPGLNITSTFHKTSGSGKGSEPKSSDKTHTGSDIQMTQSPSSLSASVGDRVTITCRASESVDNYGISFMNWFQQKPGKAPKLLIYAASNQGSGVPSRFSGSGSGTDFTLTISSLQPDDFATYYCQQSKEVPWTFGQGTKVEIKRTVAAPSVFIFPPSDEQLKSGTASVVCLLNNFYPREAKVQWKVDNALQSGNSQESVTEQDSKDSTYSLSSTLTLSKADYEKHKVYACEVTHQGLSSPVTKSFNRGECHHHHHH heavy: QVQLVQSGAEVKKPGSSVKVSCKASGYTFTDYNMHWVRQAPGQGLEWIGYIYPYNGGTGYNQKFKSKATITADESTNTAYMELSSLRSEDTAVYYCARGRPAMDYWGQGTLVTVSSASTKGPSVFPLAPSSKSTSGGTAALGCLVKDYFPEPVTVSWNSGALTSGVHTFPAVLQSSGLYSLSSVVTVPSSSLGTQTYICNVNHKPSNTKVDKKVEPKSCHHHHHH | 2.7 | 7.39 | 3 | 11 | 1.2

Now from value to binder:

HisTag MFI Ratio of EGFR+/EGFR- (nfP2X7 CAR 1 [1]) | MFI HisTag FITC (CD33 [2]) | HisTag MFI Ratio (background 0.4) (nfP2X7 CAR 1 [3]) | MFIR HisTag FITC (CD33 [4]) | MFI HisTag FITC in EGFR+ Population (nfP2X7 CAR 1 [5]) | Binder
2.9 | 6.53 | 3.4 | 9.75 | 1.34 | CD33 BRIDGE variant B8 (Fab, V domains shown, Lintuzumab-based Fab bridging molecule) VH: QVQLVQSGAEVKKPGSSVKVSCKASGYTFTDYNMHWVRQAPGQGLEWIGYIYPYNGGTGYNQKFKSKATITADESTNTAYMELSSLRSEDTAVYYCARGRPAMDYWGQGTLVTVSS VL: DIQMTQSPSSLSASVGDRVTITCRASESVDNYGISFMNWFQQKPGKAPKLLIYAASNQGSGVPSRFSGSGSGTDFTLTISSLQPDDFATYYCQQSKEVPWTFGQGTKVEIKR
2.8 | 6.33 | 2.9 | 9.45 | 1.16 | CD33 BRIDGE variant B9 (Fab, V domains shown, Lintuzumab-based Fab bridging molecule) VH: QVQLVQSGAEVKKPGSSVKVSCKASGYTFTDYNMHWVRQAPGQGLEWIGYIYPYNGGTGYNQKFKSKATITADESTNTAYMELSSLRSEDTAVYYCARGRPAMDYWGQGTLVTVSS VL: DIQMTQSPSSLSASVGDRVTITCRASESVDNYGISFMNWFQQKPGKAPKLLIYAASNQGSGVPSRFSGSGSGTDFTLTISSLQPDDFATYYCQQSKEVPWTFGQGTKVEIKR
3.4 | 6.27 | 4.6 | 9.36 | 1.83 | CD33 BRIDGE variant B16 (Fab, Lintuzumab-based Fab bridging molecule) light: GHNYTTRNILPGLNITSTFHKTSGSGKEPKSSDKTHTGGGGSDIQMTQSPSSLSASVGDRVTITCRASESVDNYGISFMNWFQQKPGKAPKLLIYAASNQGSGVPSRFSGSGSGTDFTLTISSLQPDDFATYYCQQSKEVPWTFGQGTKVEIKRTVAAPSVFIFPPSDEQLKSGTASVVCLLNNFYPREAKVQWKVDNALQSGNSQESVTEQDSKDSTYSLSSTLTLSKADYEKHKVYACEVTHQGLSSPVTKSFNRGECHHHHHH heavy: QVQLVQSGAEVKKPGSSVKVSCKASGYTFTDYNMHWVRQAPGQGLEWIGYIYPYNGGTGYNQKFKSKATITADESTNTAYMELSSLRSEDTAVYYCARGRPAMDYWGQGTLVTVSSASTKGPSVFPLAPSSKSTSGGTAALGCLVKDYFPEPVTVSWNSGALTSGVHTFPAVLQSSGLYSLSSVVTVPSSSLGTQTYICNVNHKPSNTKVDKKVEPKSCHHHHHH
3.1 | 6.08 | 3.9 | 9.07 | 1.55 | CD33 BRIDGE variant B12 (Fab, Lintuzumab-based Fab bridging molecule) light: GHNYTTRNILPGLNITSTFHKTSGSGKGGGGSEPKSSDKTHTGSDIQMTQSPSSLSASVGDRVTITCRASESVDNYGISFMNWFQQKPGKAPKLLIYAASNQGSGVPSRFSGSGSGTDFTLTISSLQPDDFATYYCQQSKEVPWTFGQGTKVEIKRTVAAPSVFIFPPSDEQLKSGTASVVCLLNNFYPREAKVQWKVDNALQSGNSQESVTEQDSKDSTYSLSSTLTLSKADYEKHKVYACEVTHQGLSSPVTKSFNRGECHHHHHH heavy: QVQLVQSGAEVKKPGSSVKVSCKASGYTFTDYNMHWVRQAPGQGLEWIGYIYPYNGGTGYNQKFKSKATITADESTNTAYMELSSLRSEDTAVYYCARGRPAMDYWGQGTLVTVSSASTKGPSVFPLAPSSKSTSGGTAALGCLVKDYFPEPVTVSWNSGALTSGVHTFPAVLQSSGLYSLSSVVTVPSSSLGTQTYICNVNHKPSNTKVDKKVEPKSCHHHHHH
3.1 | 7.64 | 3.8 | 11.4 | 1.5 | CD33 BRIDGE variant B15 (Fab, Lintuzumab-based Fab bridging molecule) light: GHNYTTRNILPGLNITSGGGGSEPKSSDKTHTGGGGSDIQMTQSPSSLSASVGDRVTITCRASESVDNYGISFMNWFQQKPGKAPKLLIYAASNQGSGVPSRFSGSGSGTDFTLTISSLQPDDFATYYCQQSKEVPWTFGQGTKVEIKRTVAAPSVFIFPPSDEQLKSGTASVVCLLNNFYPREAKVQWKVDNALQSGNSQESVTEQDSKDSTYSLSSTLTLSKADYEKHKVYACEVTHQGLSSPVTKSFNRGECHHHHHH heavy: QVQLVQSGAEVKKPGSSVKVSCKASGYTFTDYNMHWVRQAPGQGLEWIGYIYPYNGGTGYNQKFKSKATITADESTNTAYMELSSLRSEDTAVYYCARGRPAMDYWGQGTLVTVSSASTKGPSVFPLAPSSKSTSGGTAALGCLVKDYFPEPVTVSWNSGALTSGVHTFPAVLQSSGLYSLSSVVTVPSSSLGTQTYICNVNHKPSNTKVDKKVEPKSCHHHHHH
